Laboratory results taken from PMC9832388, “A novel method for real-time analysis of the complement C3b:FH:FI complex reveals dominant negative CFI variants in age-related macular degeneration” (Frontiers in Immunology, 2022).

Target: C3b (UniProt P01024 23-667; P01024 749-1663)
Assay: cell-based or functional assay

Chain of C3b (P01024 23-667, chain 1 of 2): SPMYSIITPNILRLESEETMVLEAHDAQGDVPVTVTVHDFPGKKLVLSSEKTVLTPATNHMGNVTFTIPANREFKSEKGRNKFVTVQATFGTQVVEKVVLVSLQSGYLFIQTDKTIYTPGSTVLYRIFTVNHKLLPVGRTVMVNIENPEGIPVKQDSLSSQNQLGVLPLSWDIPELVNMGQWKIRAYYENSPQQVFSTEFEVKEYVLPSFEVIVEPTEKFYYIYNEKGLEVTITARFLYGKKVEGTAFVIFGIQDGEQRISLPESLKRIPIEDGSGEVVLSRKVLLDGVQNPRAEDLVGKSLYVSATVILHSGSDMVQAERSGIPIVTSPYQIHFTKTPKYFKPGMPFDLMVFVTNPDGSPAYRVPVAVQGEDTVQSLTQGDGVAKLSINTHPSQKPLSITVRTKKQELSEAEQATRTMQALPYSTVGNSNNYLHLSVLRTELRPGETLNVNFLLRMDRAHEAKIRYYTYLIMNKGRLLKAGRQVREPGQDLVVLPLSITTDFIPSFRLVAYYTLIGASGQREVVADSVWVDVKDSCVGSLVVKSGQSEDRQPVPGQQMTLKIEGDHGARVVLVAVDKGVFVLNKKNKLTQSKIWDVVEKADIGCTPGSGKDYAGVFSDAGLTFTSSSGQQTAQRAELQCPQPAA
Chain of C3b (P01024 749-1663, chain 2 of 2): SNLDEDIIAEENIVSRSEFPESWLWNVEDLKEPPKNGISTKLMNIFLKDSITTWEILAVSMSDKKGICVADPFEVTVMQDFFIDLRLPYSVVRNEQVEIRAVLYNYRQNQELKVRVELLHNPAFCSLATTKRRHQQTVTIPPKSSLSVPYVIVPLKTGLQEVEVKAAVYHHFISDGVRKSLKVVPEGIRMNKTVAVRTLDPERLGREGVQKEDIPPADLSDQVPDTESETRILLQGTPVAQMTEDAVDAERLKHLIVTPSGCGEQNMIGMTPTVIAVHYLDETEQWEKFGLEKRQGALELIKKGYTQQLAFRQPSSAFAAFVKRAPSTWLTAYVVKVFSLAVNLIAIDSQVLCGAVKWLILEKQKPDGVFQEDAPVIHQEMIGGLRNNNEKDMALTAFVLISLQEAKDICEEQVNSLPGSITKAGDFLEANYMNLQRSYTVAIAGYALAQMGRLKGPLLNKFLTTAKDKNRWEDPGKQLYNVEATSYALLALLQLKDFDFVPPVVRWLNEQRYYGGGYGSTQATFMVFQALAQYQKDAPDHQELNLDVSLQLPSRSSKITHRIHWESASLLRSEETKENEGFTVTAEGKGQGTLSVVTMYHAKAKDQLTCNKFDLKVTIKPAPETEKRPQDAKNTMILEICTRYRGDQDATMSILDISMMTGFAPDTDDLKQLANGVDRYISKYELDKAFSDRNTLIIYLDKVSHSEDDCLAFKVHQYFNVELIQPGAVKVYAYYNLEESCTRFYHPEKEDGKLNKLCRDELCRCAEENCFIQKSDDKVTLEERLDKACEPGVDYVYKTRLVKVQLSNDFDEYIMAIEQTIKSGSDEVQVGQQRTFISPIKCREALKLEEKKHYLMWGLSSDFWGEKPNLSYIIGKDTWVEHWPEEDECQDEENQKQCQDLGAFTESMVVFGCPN

inhibition of the activity of WT FI in a fluid phase CA assay with increasing I340T FI (~25% at equimolar, 30% at 2-fold molar): 30%
B1: I340T FI (enzyme, human)
chain 1: KVTYTSQEDLVEKKCLAKKYTHLSCDKVFCQPWQRCIEGTCVCKLPYQCPKNGTAVCATNRRSFPTYCQQKSLECLHPGTKFLNNGTCTAEGKFSVSLKHGNTDSEGIVEVKLVDQDKTMFICKSSWSMREANVACLDLGFQQGADTQRRFKLSDLSINSTECLHVHCRGLETSLAECTFTKRRTMGYQDFADVVCYTQKADSPMDDFFQCVNGKYISQMKACDGINDCGDQSDELCCKACQGKGFHCKSGVCIPSQYQCNGEVDCITGEDEVGCAGFASVTQEETEILTADMDAERRRIKSLLPKLSCGVKNRMHI
chain 2: TVGGKRAQLGDLPWQVAIKDASGITCGGIYIGGCWILTAAHCLRASKTHRYQIWTTVVDWIHPDLKRIVIEYVDRIIFHENYNAGTYQNDIALIEMKKDGNKKDCELPRSIPACVPWSPYLFQPNDTCIVSGWGREKDNERVFSLQWGEVKLISNCSKFYGNRFYEKEMECAGTYDGSIDACKGDSGGPLVCMDANNVTYVWGVVSWGENCGKPEFPGVYTKVANYFDWISYHVGRPFISQYNV
